# Results from patent US20210230570.
# Target: Factor X (FX), P00742
# Sequence (P00742 whole entry, looked up): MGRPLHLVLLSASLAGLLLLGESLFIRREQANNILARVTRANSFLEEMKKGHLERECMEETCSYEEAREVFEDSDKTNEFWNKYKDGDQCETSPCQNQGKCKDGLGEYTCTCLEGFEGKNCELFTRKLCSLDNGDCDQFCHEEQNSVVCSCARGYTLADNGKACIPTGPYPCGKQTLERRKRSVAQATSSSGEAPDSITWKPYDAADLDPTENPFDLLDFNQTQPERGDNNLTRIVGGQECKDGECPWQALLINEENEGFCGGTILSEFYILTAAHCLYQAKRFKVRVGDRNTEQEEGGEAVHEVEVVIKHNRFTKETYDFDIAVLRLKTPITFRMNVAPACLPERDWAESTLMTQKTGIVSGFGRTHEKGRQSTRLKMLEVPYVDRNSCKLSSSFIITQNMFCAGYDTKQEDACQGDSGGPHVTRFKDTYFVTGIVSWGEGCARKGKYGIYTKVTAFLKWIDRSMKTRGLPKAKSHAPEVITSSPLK
Protein,kcat [s⁻¹],kcat/KM [M⁻¹ s⁻¹],"kcat (s^-1) for activation of FX by FIXa in the Xase complex (FVIIIa, PC/PS vesicles, Ca2+), fluorogenic Spectrafluor FXa read-out [s⁻¹]"
FIXa-Y155F/K247N/N249S/R318Y/R338E/T343R (protein) chain 1: YNSGKLEEFVQGNLERECMEEKCSFEEAREVFENTERTTEFWKQYVDGDQCESNPCLNGGSCKDDINSYECWCPFGFEGKNCELDVTCNIKNGRCEQFCKNSADNKVVCSCTEGYRLAENQKSCEPAVPFPCGRVSVSQTSKLTR chain 2: VVGGEDAKPGQFPWQVVLNGKVDAFCGGSIVNEKWIVTAAHCVETGVKITVVAGEHNIEETEHTEQNRSVIRIIPHHNYNAAINKYNHDIALLELDEPLVLNSYVTPICIADKEYTNIFLKFGSGYVSGWGRVFHKGYSALVLQYLRVPLVDRATCLESTKFRIYNNMFCAGFHEGGRDSCQGDSGGPHVTEVEGTSFLTGIISWGEECAMKGKYGIYTKVSRYVNWIKEKTKLT,8.5,3.6e+08,
FIXa-K228N/K247N/N249S/R318Y/R338E/T343R/R403E (protein) chain 1: YNSGKLEEFVQGNLERECMEEKCSFEEAREVFENTERTTEFWKQYVDGDQCESNPCLNGGSCKDDINSYECWCPFGFEGKNCELDVTCNIKNGRCEQFCKNSADNKVVCSCTEGYRLAENQKSCEPAVPFPCGRVSVSQTSKLTR chain 2: VVGGEDAKPGQFPWQVVLNGKVDAFCGGSIVNEKWIVTAAHCVETGVNITVVAGEHNIEETEHTEQNRSVIRIIPHHNYNAAINKYNHDIALLELDEPLVLNSYVTPICIADKEYTNIFLKFGSGYVSGWGRVFHKGYSALVLQYLRVPLVDRATCLESTKFRIYNNMFCAGFHEGGRDSCQGDSGGPHVTEVEGTSFLTGIISWGEECAMKGKYGIYTKVSEYVNWIKEKTKLT,,2.9e+08,10.9
FIXa-K228N/K247N/N249S/R318Y/R338E/T343R/E410N (protein) chain 1: YNSGKLEEFVQGNLERECMEEKCSFEEAREVFENTERTTEFWKQYVDGDQCESNPCLNGGSCKDDINSYECWCPFGFEGKNCELDVTCNIKNGRCEQFCKNSADNKVVCSCTEGYRLAENQKSCEPAVPFPCGRVSVSQTSKLTR chain 2: VVGGEDAKPGQFPWQVVLNGKVDAFCGGSIVNEKWIVTAAHCVETGVNITVVAGEHNIEETEHTEQNRSVIRIIPHHNYNAAINKYNHDIALLELDEPLVLNSYVTPICIADKEYTNIFLKFGSGYVSGWGRVFHKGYSALVLQYLRVPLVDRATCLESTKFRIYNNMFCAGFHEGGRDSCQGDSGGPHVTEVEGTSFLTGIISWGEECAMKGKYGIYTKVSRYVNWIKNKTKLT,,1.3e+08,4.7
FIXa-Y155F/K247N/N249S/T343R/E410N (protein) chain 1: YNSGKLEEFVQGNLERECMEEKCSFEEAREVFENTERTTEFWKQYVDGDQCESNPCLNGGSCKDDINSYECWCPFGFEGKNCELDVTCNIKNGRCEQFCKNSADNKVVCSCTEGYRLAENQKSCEPAVPFPCGRVSVSQTSKLTR chain 2: VVGGEDAKPGQFPWQVVLNGKVDAFCGGSIVNEKWIVTAAHCVETGVKITVVAGEHNIEETEHTEQNRSVIRIIPHHNYNAAINKYNHDIALLELDEPLVLNSYVTPICIADKEYTNIFLKFGSGYVSGWGRVFHKGRSALVLQYLRVPLVDRATCLRSTKFRIYNNMFCAGFHEGGRDSCQGDSGGPHVTEVEGTSFLTGIISWGEECAMKGKYGIYTKVSRYVNWIKNKTKLT,7.9,2.8e+08,
FIXa-Y155F/R318Y/T343R/E410N (protein) chain 1: YNSGKLEEFVQGNLERECMEEKCSFEEAREVFENTERTTEFWKQYVDGDQCESNPCLNGGSCKDDINSYECWCPFGFEGKNCELDVTCNIKNGRCEQFCKNSADNKVVCSCTEGYRLAENQKSCEPAVPFPCGRVSVSQTSKLTR chain 2: VVGGEDAKPGQFPWQVVLNGKVDAFCGGSIVNEKWIVTAAHCVETGVKITVVAGEHNIEETEHTEQKRNVIRIIPHHNYNAAINKYNHDIALLELDEPLVLNSYVTPICIADKEYTNIFLKFGSGYVSGWGRVFHKGYSALVLQYLRVPLVDRATCLRSTKFRIYNNMFCAGFHEGGRDSCQGDSGGPHVTEVEGTSFLTGIISWGEECAMKGKYGIYTKVSRYVNWIKNKTKLT,,1.5e+08,5
FIXa-R318Y/T343R/E410N (protein) chain 1: YNSGKLEEFVQGNLERECMEEKCSFEEAREVFENTERTTEFWKQYVDGDQCESNPCLNGGSCKDDINSYECWCPFGFEGKNCELDVTCNIKNGRCEQFCKNSADNKVVCSCTEGYRLAENQKSCEPAVPFPCGRVSVSQTSKLTR chain 2: VVGGEDAKPGQFPWQVVLNGKVDAFCGGSIVNEKWIVTAAHCVETGVKITVVAGEHNIEETEHTEQKRNVIRIIPHHNYNAAINKYNHDIALLELDEPLVLNSYVTPICIADKEYTNIFLKFGSGYVSGWGRVFHKGYSALVLQYLRVPLVDRATCLRSTKFRIYNNMFCAGFHEGGRDSCQGDSGGPHVTEVEGTSFLTGIISWGEECAMKGKYGIYTKVSRYVNWIKNKTKLT,,6.2e+07,3.2
FIXa-K247N/N249S/R318Y/R338E/T343R (protein) chain 1: YNSGKLEEFVQGNLERECMEEKCSFEEAREVFENTERTTEFWKQYVDGDQCESNPCLNGGSCKDDINSYECWCPFGFEGKNCELDVTCNIKNGRCEQFCKNSADNKVVCSCTEGYRLAENQKSCEPAVPFPCGRVSVSQTSKLTR chain 2: VVGGEDAKPGQFPWQVVLNGKVDAFCGGSIVNEKWIVTAAHCVETGVKITVVAGEHNIEETEHTEQNRSVIRIIPHHNYNAAINKYNHDIALLELDEPLVLNSYVTPICIADKEYTNIFLKFGSGYVSGWGRVFHKGYSALVLQYLRVPLVDRATCLESTKFRIYNNMFCAGFHEGGRDSCQGDSGGPHVTEVEGTSFLTGIISWGEECAMKGKYGIYTKVSRYVNWIKEKTKLT,8,3.9e+08,
FIXa-K228N/R318Y/R338E/T343R/R403E/E410N (protein) chain 1: YNSGKLEEFVQGNLERECMEEKCSFEEAREVFENTERTTEFWKQYVDGDQCESNPCLNGGSCKDDINSYECWCPFGFEGKNCELDVTCNIKNGRCEQFCKNSADNKVVCSCTEGYRLAENQKSCEPAVPFPCGRVSVSQTSKLTR chain 2: VVGGEDAKPGQFPWQVVLNGKVDAFCGGSIVNEKWIVTAAHCVETGVNITVVAGEHNIEETEHTEQKRNVIRIIPHHNYNAAINKYNHDIALLELDEPLVLNSYVTPICIADKEYTNIFLKFGSGYVSGWGRVFHKGYSALVLQYLRVPLVDRATCLESTKFRIYNNMFCAGFHEGGRDSCQGDSGGPHVTEVEGTSFLTGIISWGEECAMKGKYGIYTKVSEYVNWIKNKTKLT,,2.7e+08,10.5
FIXa-Y155F/K247N/N249S/R403E/E410N (protein) chain 1: YNSGKLEEFVQGNLERECMEEKCSFEEAREVFENTERTTEFWKQYVDGDQCESNPCLNGGSCKDDINSYECWCPFGFEGKNCELDVTCNIKNGRCEQFCKNSADNKVVCSCTEGYRLAENQKSCEPAVPFPCGRVSVSQTSKLTR chain 2: VVGGEDAKPGQFPWQVVLNGKVDAFCGGSIVNEKWIVTAAHCVETGVKITVVAGEHNIEETEHTEQNRSVIRIIPHHNYNAAINKYNHDIALLELDEPLVLNSYVTPICIADKEYTNIFLKFGSGYVSGWGRVFHKGRSALVLQYLRVPLVDRATCLRSTKFTIYNNMFCAGFHEGGRDSCQGDSGGPHVTEVEGTSFLTGIISWGEECAMKGKYGIYTKVSEYVNWIKNKTKLT,2.7,2.4e+07,
FIXa-Y155F/R338E/T343R/E410N (protein) chain 1: YNSGKLEEFVQGNLERECMEEKCSFEEAREVFENTERTTEFWKQYVDGDQCESNPCLNGGSCKDDINSYECWCPFGFEGKNCELDVTCNIKNGRCEQFCKNSADNKVVCSCTEGYRLAENQKSCEPAVPFPCGRVSVSQTSKLTR chain 2: VVGGEDAKPGQFPWQVVLNGKVDAFCGGSIVNEKWIVTAAHCVETGVKITVVAGEHNIEETEHTEQKRNVIRIIPHHNYNAAINKYNHDIALLELDEPLVLNSYVTPICIADKEYTNIFLKFGSGYVSGWGRVFHKGRSALVLQYLRVPLVDRATCLESTKFRIYNNMFCAGFHEGGRDSCQGDSGGPHVTEVEGTSFLTGIISWGEECAMKGKYGIYTKVSRYVNWIKNKTKLT,6,3.5e+08,
